Experimental data published in doi:10.64898/2025.12.12.693935.

Molecular target: CD82-StrepII3 (human) (UniProt P27701)
Assay: SEC

stoichiometry N: 1
B1: CADM1-His6 (natural protein)
chain: QNLFTKDVTVIEGEVATISCQVNKSDDSVIQLLNPNRQTIYFRDFRPLKDSRFQLLNFSSSELKVSLTNVSISDEGRYFCQLYTDPPQESYTTITVLVPPRNLMIDIQKDTAVEGEEIEVNCTAMASKPATTIRWFKGNTELKGKSEVEEWSDMYTVTSQLMLKVHKEDDGVPVICQVEHPAVTGNLQTQRYLEVQYKPQVHIQMTYPLQGLTREGDALELTCEAIGKPQPVMVTWVRVDDEMPQHAVLSGPNLFINNLNKTDNGTYRCEASNIVGKAHSDYMLYVYDPPTTIPPPTTTTTTTTTTTTTILTIITDSRAGEEGSIRAVDHAVIGGVVAVVVFAMLCLLIILGRYFARHKGTYFTHEAKGADDAADADTAIINAEGGQNNSEEKKEYFI
